Measurements: the supplement of paper PMC9170038

System: K4 kissing-loop RNA reporter
Assay: apparent KD of K4 kissing-loop reporter; higher = weaker reporter binding
Conditions: Eterna round: R107
Protocol: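 RNA-MaP round R107: designed RNA switches with theophylline, tryptophan, arginine or FMN aptamers are transcribed on-chip within common flanks. They are titrated with a labelled K4 kissing-loop RNA reporter in RNA-MaP buffer (100 mM Tris pH 7.5, 80 mM KCl, 4 mM MgCl2), without ligand or with the indicated ligand. Median apparent KD per design.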

[1] = input ligand: theophylline 20 uM
[2] = input ligand: tryptophan 2.4 mM
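Also: bound reporter read as fluorescence of individual clusters on recovered sequencing chips by microscopy, with normalized cluster intensities fitted with a binding model.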

CGCCGGAAGGCGAGCGCUCCCACUCCGGAAGGAGCGCCCGAAAGGGCAGGUAGGUCGCCGGAGUGAUGUUCCGGUGGAGGGCUCG [#2 Exclusion - Arginine A Attempt #29 (Inspired by Omei)]
apparent KD of K4 kissing-loop reporter (input ligand: FMN 200 uM): 125 nM | apparent KD of K4 kissing-loop reporter (input ligand: arginine 13.2 mM): 119 nM | apparent KD of K4 kissing-loop reporter (input ligand: none): 121 nM | apparent KD of K4 kissing-loop reporter [1]: 371 nM | apparent KD of K4 kissing-loop reporter [2]: 187 nM

CUGACCAACAGCGAUACCAGCGUGGAGUGAUGUUCCCUGGUCCGGGCUGAUGUUCCCUUGCGCCCUUGGCAGCGCAGAAGCAGGA [Exclusion Theophylline B GF 12]
apparent KD of K4 kissing-loop reporter (input ligand: FMN 200 uM): 296 nM | apparent KD of K4 kissing-loop reporter (input ligand: arginine 13.2 mM): 263 nM | apparent KD of K4 kissing-loop reporter (input ligand: none): 351 nM | apparent KD of K4 kissing-loop reporter [1]: 303 nM | apparent KD of K4 kissing-loop reporter [2]: 281 nM

GCCGUAGAUUGAAGGAGCGGGAUAGAGAAAGUGAUGUUUUCUCUUUGACGGCGUCCUCGAUCCCAGGUAGGUCGCAAUCUACGGC
apparent KD of K4 kissing-loop reporter (input ligand: FMN 200 uM): 76.1 nM | apparent KD of K4 kissing-loop reporter (input ligand: arginine 13.2 mM): 75.2 nM | apparent KD of K4 kissing-loop reporter (input ligand: none): 81.2 nM | apparent KD of K4 kissing-loop reporter [1]: 73.5 nM | apparent KD of K4 kissing-loop reporter [2]: 70.2 nM

GGUGACUACCAGAGGUGAUGUAUAGUAUCGCGAGGACCGGUACGGCCGCCACUCGUGAAGAGAAAGGAGUGAUGUUCCGUAAUGG [Kazoo C8]
apparent KD of K4 kissing-loop reporter (input ligand: FMN 200 uM): 396 nM | apparent KD of K4 kissing-loop reporter (input ligand: arginine 13.2 mM): 315 nM | apparent KD of K4 kissing-loop reporter (input ligand: none): 323 nM | apparent KD of K4 kissing-loop reporter [1]: 627 nM | apparent KD of K4 kissing-loop reporter [2]: 160 nM

UGUACCGAGUCAGGAUAUCAACGACUGACAAAAGUCGGUCGAAUAUCCAGUGAUGUUGGAAAUAAAUGAGAAGGGACUUGGUACU [FmnBS 14 #SwitchBubble #StaticStem]
apparent KD of K4 kissing-loop reporter (input ligand: FMN 200 uM): 125 nM | apparent KD of K4 kissing-loop reporter (input ligand: arginine 13.2 mM): 258 nM | apparent KD of K4 kissing-loop reporter (input ligand: none): 276 nM | apparent KD of K4 kissing-loop reporter [1]: 264 nM | apparent KD of K4 kissing-loop reporter [2]: 265 nM

UCCUGCAAUCGGCCACGAAAGUGGAUGGAUACCAGAGUCGAAAGACUCCCUUGGCAGCCAGUGAUGUUGGAAGCAGGUAAAUAAA
apparent KD of K4 kissing-loop reporter (input ligand: FMN 200 uM): 838 nM | apparent KD of K4 kissing-loop reporter (input ligand: arginine 13.2 mM): 499 nM | apparent KD of K4 kissing-loop reporter (input ligand: none): 470 nM | apparent KD of K4 kissing-loop reporter [1]: 538 nM | apparent KD of K4 kissing-loop reporter [2]: 505 nM

CUAGCUAGCAUGGAAACAUGCUAGCUAGAUUAGGAUAUGACGUAAGUCAGAAGGGAUAAAUGGAGUGAUGUUCCGGACGCAAGUC [#2 Same State - FMN A Attempt #4 (HarryS)]
apparent KD of K4 kissing-loop reporter (input ligand: FMN 200 uM): 255 nM | apparent KD of K4 kissing-loop reporter (input ligand: arginine 13.2 mM): 237 nM | apparent KD of K4 kissing-loop reporter (input ligand: none): 247 nM | apparent KD of K4 kissing-loop reporter [1]: 295 nM | apparent KD of K4 kissing-loop reporter [2]: 186 nM

AAACAUCACUGGGAGUGAUGUUCUCAGUGACGAGGACCGGUACGGCCGCCACUCGCGAGAGAUAUAAAUGAGUAAUGACAUCAUU [Excl Tryptophan A V2]
apparent KD of K4 kissing-loop reporter (input ligand: FMN 200 uM): 276 nM | apparent KD of K4 kissing-loop reporter (input ligand: arginine 13.2 mM): 236 nM | apparent KD of K4 kissing-loop reporter (input ligand: none): 280 nM | apparent KD of K4 kissing-loop reporter [1]: 258 nM | apparent KD of K4 kissing-loop reporter [2]: 325 nM

UCUGCAAAGUCGGCCGCCACUCCGGGCCCUAUAAAUGGGCGCAGUGAUGUUGCGGCUAGGCCUCUGAGGACCGGGACUUUAUAGA [Anarisgema]
apparent KD of K4 kissing-loop reporter (input ligand: FMN 200 uM): 37.4 nM | apparent KD of K4 kissing-loop reporter (input ligand: arginine 13.2 mM): 45.8 nM | apparent KD of K4 kissing-loop reporter (input ligand: none): 184 nM | apparent KD of K4 kissing-loop reporter [1]: 88.3 nM | apparent KD of K4 kissing-loop reporter [2]: 175 nM

GUCUCAAAAGAGGCAAGCACUCACGAGGACAAGGAUAUCAUCUCAAUGAGAAGGUGUCCUCGUCCCUAGUGAUGUUAGGGAGUGC [Omei KL FMN A SS E v2]
apparent KD of K4 kissing-loop reporter (input ligand: FMN 200 uM): 211 nM | apparent KD of K4 kissing-loop reporter (input ligand: arginine 13.2 mM): 334 nM | apparent KD of K4 kissing-loop reporter (input ligand: none): 368 nM | apparent KD of K4 kissing-loop reporter [1]: 478 nM | apparent KD of K4 kissing-loop reporter [2]: 468 nM

UUACCAAGUGAUGUUUGGAAAUAUCCUAGGCAGGAUAUGCGGAAACGCAGAAGGGCCACCUUAUAGUGAAGGAAACUUCGCUAUU [Ex FMN A 2]
apparent KD of K4 kissing-loop reporter (input ligand: FMN 200 uM): 163 nM | apparent KD of K4 kissing-loop reporter (input ligand: arginine 13.2 mM): 124 nM | apparent KD of K4 kissing-loop reporter (input ligand: none): 140 nM | apparent KD of K4 kissing-loop reporter [1]: 141 nM | apparent KD of K4 kissing-loop reporter [2]: 142 nM

UUUCGUUGAAGUGAUACCAGACUUGAAAGUGAUGUUUUCCAAUAAUUUAAAUUAUUAGCUGUCCCUUGGCAGCACAGUUUAUUUA [JR_ExcTheophyB_Sub007]
apparent KD of K4 kissing-loop reporter (input ligand: FMN 200 uM): 255 nM | apparent KD of K4 kissing-loop reporter (input ligand: arginine 13.2 mM): 371 nM | apparent KD of K4 kissing-loop reporter (input ligand: none): 327 nM | apparent KD of K4 kissing-loop reporter [1]: 443 nM | apparent KD of K4 kissing-loop reporter [2]: 208 nM

CUAUGGAAACAUAGGAGUCGGGAAACCGAUACCAGUAUGGAAACAUACCCUUGGCAGCGGAAUGAUUCAACGGAGUGAUGUUCCG [Theophylline A K4 19]
apparent KD of K4 kissing-loop reporter (input ligand: FMN 200 uM): 458 nM | apparent KD of K4 kissing-loop reporter (input ligand: arginine 13.2 mM): 366 nM | apparent KD of K4 kissing-loop reporter (input ligand: none): 400 nM | apparent KD of K4 kissing-loop reporter [1]: 322 nM | apparent KD of K4 kissing-loop reporter [2]: 366 nM

AGAGUUAUGCGAGGAUAUGCGGUUAGUACUCAAAGAGUACUAACGGCAGAGUGAUGUUCUGUGAAAGCAGAAGGUGCAUAACUCA [Omei KL FMN B SS B v9]
apparent KD of K4 kissing-loop reporter (input ligand: FMN 200 uM): 274 nM | apparent KD of K4 kissing-loop reporter (input ligand: arginine 13.2 mM): 523 nM | apparent KD of K4 kissing-loop reporter (input ligand: none): 1090 nM | apparent KD of K4 kissing-loop reporter [1]: 327 nM | apparent KD of K4 kissing-loop reporter [2]: 1360 nM

UGGAGUUGACGAAAAGUCAACUCCUGGGAAGGAGCGGACGAAAGUCCAGGUAGGUCGCUCACUACCAGUGAUGUUGGUACUAAAA
apparent KD of K4 kissing-loop reporter (input ligand: FMN 200 uM): 144 nM | apparent KD of K4 kissing-loop reporter (input ligand: arginine 13.2 mM): 351 nM | apparent KD of K4 kissing-loop reporter (input ligand: none): 296 nM | apparent KD of K4 kissing-loop reporter [1]: 200 nM | apparent KD of K4 kissing-loop reporter [2]: 215 nM

AGACCACAAAGUGGUCAGUGUUCGCUGCAGCGAGGACCGGUACGGCCGCCACUCGCGAGUGAUGUUCGCGAGAGCAGCGAACACA [Omei KL Tryp A Exc A v6]
apparent KD of K4 kissing-loop reporter (input ligand: FMN 200 uM): 90.9 nM | apparent KD of K4 kissing-loop reporter (input ligand: arginine 13.2 mM): 83.4 nM | apparent KD of K4 kissing-loop reporter (input ligand: none): 82.1 nM | apparent KD of K4 kissing-loop reporter [1]: 87.3 nM | apparent KD of K4 kissing-loop reporter [2]: 116 nM

UAACUCUUGCAGUGAUGUUGCAAGUAAGCUCAGGAUAUCAGGAAACUGAGAAGGGAGUAUCCUGAGCUUCUGCAAGAGCUCAGAA [KL-SSFMN-A5]
apparent KD of K4 kissing-loop reporter (input ligand: FMN 200 uM): 227 nM | apparent KD of K4 kissing-loop reporter (input ligand: arginine 13.2 mM): 83.2 nM | apparent KD of K4 kissing-loop reporter (input ligand: none): 362 nM | apparent KD of K4 kissing-loop reporter [1]: 68.6 nM | apparent KD of K4 kissing-loop reporter [2]: 97.3 nM

GUUACGCAUGGAAGGAGCGCAUGCUCAACUAUAAGCUCAGUGAUGUUGAGCAUUUUUUUUUUGCAGGUAGGUCGCCAUGUGUAAC [Ex Arginine B K4 29]
apparent KD of K4 kissing-loop reporter (input ligand: FMN 200 uM): 320 nM | apparent KD of K4 kissing-loop reporter (input ligand: arginine 13.2 mM): 255 nM | apparent KD of K4 kissing-loop reporter (input ligand: none): 386 nM | apparent KD of K4 kissing-loop reporter [1]: 438 nM | apparent KD of K4 kissing-loop reporter [2]: 217 nM

CUUGAUGGAAACAUCGAGUAGAUUACUGAUACCAGUAUCGAUAGAUACCCUUGGCAGCAGAAUCAGUAAUCACGAGUGAUGUUCG [Ex Theophylline A K4 7]
apparent KD of K4 kissing-loop reporter (input ligand: FMN 200 uM): 535 nM | apparent KD of K4 kissing-loop reporter (input ligand: arginine 13.2 mM): 528 nM | apparent KD of K4 kissing-loop reporter (input ligand: none): 555 nM | apparent KD of K4 kissing-loop reporter [1]: 518 nM | apparent KD of K4 kissing-loop reporter [2]: 485 nM

UCCUGCAAUCUACCACGAAAGUGGAUGGAUACCAGAGUCGAAAGACUCCCUUGGCAGCCAGUGAUGUUGGAGCAGGUAAAAUAAA
apparent KD of K4 kissing-loop reporter (input ligand: FMN 200 uM): 670 nM | apparent KD of K4 kissing-loop reporter (input ligand: arginine 13.2 mM): 462 nM | apparent KD of K4 kissing-loop reporter (input ligand: none): 638 nM | apparent KD of K4 kissing-loop reporter [1]: 514 nM | apparent KD of K4 kissing-loop reporter [2]: 529 nM

UAUCAGAUUACUGAUACCAGUCUAAAGACAGUGAUGUUGUCUGAUCGACCACGAUCCAAGGACCCUUGGCAGCAGUGUACUAUUC [#30 K4 Theophylline B Same State]
apparent KD of K4 kissing-loop reporter (input ligand: FMN 200 uM): 177 nM | apparent KD of K4 kissing-loop reporter (input ligand: arginine 13.2 mM): 183 nM | apparent KD of K4 kissing-loop reporter (input ligand: none): 194 nM | apparent KD of K4 kissing-loop reporter [1]: 205 nM | apparent KD of K4 kissing-loop reporter [2]: 191 nM

AAAAUAAACCAGUGAUGUUGGUGUCCAGAUACCAGCGACAAAAGUCGCCCUUGGCAGCUGUGGACGUACAAAAUAAGUACGUCCU [MatMod 1 - Jieux - Same State - Theophylline A]
apparent KD of K4 kissing-loop reporter (input ligand: FMN 200 uM): 390 nM | apparent KD of K4 kissing-loop reporter (input ligand: arginine 13.2 mM): 271 nM | apparent KD of K4 kissing-loop reporter (input ligand: none): 393 nM | apparent KD of K4 kissing-loop reporter [1]: 256 nM | apparent KD of K4 kissing-loop reporter [2]: 316 nM
